Measurements published in patent publication US20180031580A1, “USE OF IGF-1 AS PROGNOSTIC FACTOR IN CALCIFICATION OF AORTIC VALVES” (THE ASAN FOUNDATION, priority 2015, published 2018).

Experiments:
[1] = system: aortic valve vascular smooth muscle tissue; assay: ALP staining of aortic valve vascular smooth muscle tissue, osteocytogenesis level; assay type: in vivo, mice; settings: wild-type or eNOS-deficient mice treated with DPP-4 and IGF-1 at the same time; FIG. 2a
Protocol: Wild-type mice or eNOS-deficient mice which are animal models with the aortic valve calcification were treated with insulin-like growth factor type 1 (IGF-1) alone or treated with dipeptidyl-peptidase 4 (DPP-4) and IGF-1 at the same time. Then, ALP staining was performed on the aortic valve vascular smooth muscle tissue, thereby comparing the […] level of tissue (FIG. 2a). Here, the aortic valve vascular smooth muscle tissue of the wild-type mice treated with nothing or the eNOS-deficient mice was used as a control group.
FIG. 2a are an image and a graph showing verification of the effect of DPP-4 on an action of IGF-1 inhibiting osteocytogenesis in the aortic valve vascular smooth muscle tissue of the wild-type mice or the eNOS-deficient mice.

ERK or Akt = assay: Western blot of phosphorylation of intracellular signaling proteins ERK or Akt in aortic valve vascular smooth muscle tissue; assay type: in vivo; settings: eNOS-deficient mice treated with IGF-1 and DPP-4, 0, 5, 15 or 30 minutes; FIG. 2b
Protocol: Further, in order to confirm whether the activation level of the protein involved in intracellular signaling was changed by osteocytogenesis according to DPP-4, the eNOS-deficient mice were treated with IGF-1 alone for 0, 5, 15 or 30 minutes, or treated with DPP-4 and IGF-1 at the same time, and then, the aortic valve vascular smooth muscle tissue was extracted from these mice. Then, a phosphorylation level of ERK or Akt which is a protein involved in intracellular signaling expressed in the extracted tissues was compared by western blot analysis (FIG. 2b). Here, β-actin was used as an internal control group.
FIG. 2b is a Western blot analysis image showing a change in the phosphorylation level of ERK or Akt which is the protein involved in intracellular signaling according to whether the DPP-4 is treated in the eNOS-deficient mice treated with IGF-1.

B1: DPP-4: antigenic enzyme, membrane-bound glycoprotein, also referred to as CD26; cleaves two N-terminal peptides including proline (protein)
chain: NKGTDDATADSRKTYTLTDYLKNTYRLKLYSLRWISDHEYLYKQENNILVFNAEYGNSSVFLENSTFDEFGHSINDYSISPDGQFILLEYNYVKQWRHSYTASYDIYDLNKRQLITEERIPNNTQWVTWSPVGHKLAYVWNNDIYVKIEPNLPSYRITWTGKEDIIYNGITDWVYEEEVFSAYSALWWSPNGTFLAYAQFNDTEVPLIEYSFYSDESLQYPKTVRVPYPKAGAVNPTVKFFVVNTDSLSSVTNATSIQITAPASMLIGDHYLCDVTWATQERISLQWLRRIQNYSVMDICDYDESSGRWNCLVARQHIEMSTTGWVGRFRPSEPHFTLDGNSFYKIISNEEGYRHICYFQIDKKDCTFITKGTWEVIGIEALTSDYLYYISNEYKGMPGGRNLYKIQLSDYTKVTCLSCELNPERCQYYSVSFSKEAKYYQLRCSGPGLPLYTLHSSVNDKGLRVLEDNSALDKMLQNVQMPSKKLDFIILNETKFWYQMILPPHFDKSKKYPLLLDVYAGPCSQKADTVFRLNWATYLASTENIIVASFDGRGSGYQGDKIMHAINRRLGTFEVEDQIEAARQFSKMGFVDNKRIAIWGWSYGGYVTSMVLGSGSGVFKCGIAVAPVSRWEYYDSVYTERYMGLPTPEDNLDHYRNSTVMSRAENFKQVEYLLIHGTADDNVHFQQSAQISKALVDVGVDFQAMWYTDEDHGIASSTAHQHIYTHMSHFIKQCFSLP
Question: Which results are given for B1?
Answer: osteocytogenesis of aortic valve vascular smooth muscle tissue (ALP staining) [1]: intensified; phosphorylation level of ERK or Akt (ERK or Akt): reduced
